{"source": "patent US7468440B2", "about": "“Malonamides and malonamide derivatives as modulators of chemokine receptor activity” (Bristol-Myers Squibb Company, priority 2003, dated 2008)", "origin": "cited, not measured here", "molecules": {"B1": {"name": "interferon b-1b: interferon b-1b, effective therapy in human multiple sclerosis (protein, UniProt P01574 22-187, looked up, variant C17S)", "Interferon beta": "MSYNLLGFLQRSSNFQSQKLLWQLNGRLEYCLKDRMNFDIPEEIKQLQQFQKEDAALTIYEMLQNIFAIFRQDSSSTGWNETIVENLLANVYHQINHLKTVLEEKLEKEDFTRGKLMSSLHLKRYYGRILHYLKAKEYSHCAWTIVRVEILRNFYFINRLTGYLRN", "modifications": "interferon beta-1b"}}, "tested_on": "MCP-1 expression", "details": "human multiple sclerosis, effective therapy"}
{"molecule": "B1", "values": [{"measurement": "effect on MCP-1 expression in peripheral blood mononuclear cells", "value": "reduces MCP-1 expression"}]}
